# Assay results from PMC7911018.
# B1: C8-αGFP chimera (anti-GFP CDRs grafted into the C8WT scaffold) fused to mCherry (VHH)
# VHH: DVQLQASGGGLAQPGGSLRLSCAASGFPVNRYSMYWVRQAPGKGLEWVSSISSAGDRSSYYADSVKGRFTISRDNAKNTLYLQMNSLKLEDTALYFCAVNVGFEGQGTQVTVSS
# Target: C8-αGFP chimera (anti-GFP CDRs grafted into the C8WT scaffold) fused to mCherry
# Assay: SEC; gel filtration after IMAC on Superdex 75 10/30 in PBS, pH 7.4, 1 mM DTT
binder,measurement,value
B1,stoichiometry N,2
